Assay results taken from US9512178B2, “Neurogenic brain-derived neurotrophic factor peptides” (Research Foundation for Mental Hygiene, Inc., priority 2012, dated 2016).

Columns and labels:
TrkB receptor [1] = molecular target: T1, TrkB receptor (Homo sapiens, UniProt Q16620); assay: TrkB expression in TrkB stably-expressing NIH-3T3 fibroblasts, time course; type: cell-based; settings: 1 μM, 60 min
T1 construct: host or cells: NIH 3T3 fibroblasts, G418 selection
Method: To study the activation of the TrkB receptor with BDNF and/or with the peptides, NIH 3T3 cells were used, stably transfected with the TrkB receptor (obtained from Montreal Neurological Institute, Montreal, Quábec, Canada). The cell culture medium used for this cell line was: DMEM-high glucose, 10 percent normal calf serum, 1 percent glutamax, 1 percent sodium pyruvate, 1 percent penicillin-streptomycin; supplemented with the selection antibiotic G418 in a final concentration of 100 μg/ml (to guaranty the stable expression of the Trkb transgene). All Medium components were purchase from Gibco Life Technologies, Invitrogen, Grand Island, N.Y., USA.
The NIH 3T3 fibroblasts stably expressing the TrkB receptor were vehicle-treated or treated with BDNF peptides B-5 and B-3 at a concentration of 1 μM or with BDNF at a concentration of 20 ng/ml (0.79 nM) for 5, 15 or 60 min (FIG. 5E, F). […] The effect was time-dependent and was pronounced at 60 min treatment. […] The effect on the increase in expression of TrkB by Peptides B-5 and B-3 could be the way in which the peptides potentiate the BDNF pathway to avoid saturation of the receptors, and/or promote their neurotrophic effect by increasing the expressions of both BDNF (FIGS. 5A and 5B) and TrkB (FIGS. 5C through 5F).

TrkB receptor [2] = molecular target: T2, TrkB receptor (Mus musculus, UniProt P15209); assay: TrkB phosphorylation (Tyr 706) and TrkB level in primary E18 hippocampal cells, with or without K252a; type: cell-based; settings: 1 μM; for increase in the phosphorylation of the TrkB receptor: 5 min, without K252a; for TrkB levels / activation of TrkB (pTrkB Tyr 706 normalized to total TrkB): 1 h
T2 construct: endogenous in cells; host or cells: primary hippocampal neurons from embryonic day 18 C57BL/6 mice
Method: Peptides were dissolved in water in serial dilutions of 10 mM, 1 mM, 100 μM and 10 μM from which the necessary amount was added directly to the culture medium to a final concentration of 0.05 μM, 1 μM, or 10 μM. The BDNF (Peprotech, NJ, USA) was used as a reference in concentrations of 20 ng/ml (0.79 nM) and 100 ng/ml (3.95 nM). Cycloheximide (CHX) (Sigma-Aldrich, St Louis, Mo., USA) was used for blocking protein synthesis. CHX original stock was 100 mg/ml (355.4 mM) in DMSO; from a second stock of 35.54 mM in DMSO, the dilutions were made to the final concentrations of 100 μM. The K252a (CALBIOCHEM/EMD) was used to inhibit the TrkB Receptor. From a stock of 100 μM in DMSO, K252a was diluted to a final working concentration of 200 nM. The E18 primary hippocampal cells were pre-treated with CHX or K252a 1 h prior to the addition of the peptides or BDNF and a time course of these treatments for 15 min, 60 min and 2 days was studied.
Following treatment in 6-well plates, cells were washed 2× in glucose buffered saline, GBS (5.4 mM KCl, 138 mM NaCl, 22 mM glucose, and 2 mM Na—KPO pH 7.2), and then lysed by 5 min incubation on ice in 100 or 150 μl of ice-cold RIPA buffer (PBS, 1% w/v NP-40 from Fisher Scientific, 0.1% w/v SDS, and 0.5% w/v sodium desoxycholate) containing 1 mM AEBSF (Gold Biotechnology, St. Louis, Mo., USA), 10 μg/ml aprotinin (Sigma-Aldrich, St. Louis, Mo., USA), and 20 μg/ml of leupeptin and pepstatin (US Biochemicals, Cleveland, Ohio, USA), and phosphatase inhibitors: NaF, Na orthovanadate, (3-glycerophosphate, and microcystein (Sigma-Aldrich, St. Louis, Mo., USA). Extracts were prepared by collecting and pooling a minimum of 2 wells by scraping, and lysates were centrifuged at 20,000×g for 10 min at 4° C. Protein concentration of each cell lysate was determined using the BCA kit (Thermo Scientific, Rockford, Ill., USA). The lysates (7.5-20 μg total protein) were separated on 10% SDS-PAGE gels (except for BDNF where 12% gels were employed) and transferred to 0.45 μm PVDF membrane (Pall, Pensacola, Fla., USA) for probing with antibodies as noted. Blots were blocked for 1 hr at 37° C. in 1×TBST (0.05% Tween 20 in TBS) containing 5% w/v blotting grade dry milk (Bio-rad, Hercules, Calif., USA), incubated in primary antibody overnight in blocking buffer at 4° C., washed 3×10 min in TBST at room temperature, followed by incubation with secondary antibody, i.e., peroxidase-conjugated anti-mouse or anti rabbit IgG (Jackson ImmunoResearch Laboratories, West Grove, Pa., USA) diluted in blocking buffer. Blots were washed 3×10 min in TBST and immunoreactive protein bands were visualized with enhanced chemiluminescence (ECL) reagents (Pierce, Rockford, Ill., USA). The ECL films of the blots were scanned and analyzed using Multi Gauge software version 3.0 (Fujifilm, Tokyo, Japan).
The following primary antibodies were used: rabbit polyclonal anti-NFM (1:1000; Chemicon/Millipore, Billerica, Mass., USA); mouse monoclonal anti-NeuN, clone A60 (1:500; Millipore, Billerica, Mass., USA); rabbit polyclonal anti-Tuj-1, (3—III-tubulin (Covance; 1:800, Emeryville, Calif., USA); mouse monoclonal SMI 52 to the adult isoforms of MAP-2, MAP2a,b (1:1000; Covance, Emeryvilly, Calif., USA); rabbit polyclonal anti-Synapsin I (1:2000; Stressgen, Farmingdale, N.Y., USA); rabbit monoclonal anti-PSD95 (1:1000; Cell signaling, Danvers, Mass., USA); anti tau 92e (1:10000); mouse monoclonal anti-BDNF (1:1000; Calbiochem, Gibbstown, N.J., USA); rabbit polyclonal anti-TrkB (total) (1:500; Santa Cruz Biotechnology, Santa Cruz, Calif., USA); rabbit polyclonal anti-pTrkB (Tyr706) (1:400; Santa Cruz Biotechnology, Santa Cruz, Calif., USA), TrkC (1:1000; Cruz Biotechnology, Santa Cruz, Calif., USA); and pTrkY490 (1:500; Upstate USA Inc., Charlottesville, Va., USA). For loading control, the blots were developed with rabbit polyclonal antibody to GAPDH (1:2000; Santa Cruz Biotechnology, Santa Cruz, Calif., USA). […]

T2 sequence (P15209 32-821): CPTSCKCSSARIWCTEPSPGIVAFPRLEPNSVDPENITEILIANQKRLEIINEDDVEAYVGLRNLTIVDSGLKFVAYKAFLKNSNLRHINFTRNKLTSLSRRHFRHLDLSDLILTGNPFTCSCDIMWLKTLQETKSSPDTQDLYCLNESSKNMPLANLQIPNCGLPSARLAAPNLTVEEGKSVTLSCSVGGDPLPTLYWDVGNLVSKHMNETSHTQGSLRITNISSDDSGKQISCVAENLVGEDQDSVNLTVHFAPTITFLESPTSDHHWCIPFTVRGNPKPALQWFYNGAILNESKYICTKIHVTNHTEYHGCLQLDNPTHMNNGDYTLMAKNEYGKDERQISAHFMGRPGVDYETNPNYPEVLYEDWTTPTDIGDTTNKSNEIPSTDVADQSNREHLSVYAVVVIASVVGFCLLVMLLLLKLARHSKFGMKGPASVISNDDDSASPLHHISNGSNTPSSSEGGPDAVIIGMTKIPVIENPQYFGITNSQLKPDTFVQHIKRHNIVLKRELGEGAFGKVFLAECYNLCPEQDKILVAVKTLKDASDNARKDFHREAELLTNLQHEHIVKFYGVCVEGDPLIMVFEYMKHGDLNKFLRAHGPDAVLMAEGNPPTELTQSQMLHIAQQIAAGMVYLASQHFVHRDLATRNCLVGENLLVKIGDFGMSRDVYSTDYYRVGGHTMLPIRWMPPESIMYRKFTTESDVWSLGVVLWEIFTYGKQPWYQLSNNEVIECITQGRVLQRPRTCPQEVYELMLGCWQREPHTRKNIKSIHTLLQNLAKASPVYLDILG
T1 sequence (Q16620 32-822): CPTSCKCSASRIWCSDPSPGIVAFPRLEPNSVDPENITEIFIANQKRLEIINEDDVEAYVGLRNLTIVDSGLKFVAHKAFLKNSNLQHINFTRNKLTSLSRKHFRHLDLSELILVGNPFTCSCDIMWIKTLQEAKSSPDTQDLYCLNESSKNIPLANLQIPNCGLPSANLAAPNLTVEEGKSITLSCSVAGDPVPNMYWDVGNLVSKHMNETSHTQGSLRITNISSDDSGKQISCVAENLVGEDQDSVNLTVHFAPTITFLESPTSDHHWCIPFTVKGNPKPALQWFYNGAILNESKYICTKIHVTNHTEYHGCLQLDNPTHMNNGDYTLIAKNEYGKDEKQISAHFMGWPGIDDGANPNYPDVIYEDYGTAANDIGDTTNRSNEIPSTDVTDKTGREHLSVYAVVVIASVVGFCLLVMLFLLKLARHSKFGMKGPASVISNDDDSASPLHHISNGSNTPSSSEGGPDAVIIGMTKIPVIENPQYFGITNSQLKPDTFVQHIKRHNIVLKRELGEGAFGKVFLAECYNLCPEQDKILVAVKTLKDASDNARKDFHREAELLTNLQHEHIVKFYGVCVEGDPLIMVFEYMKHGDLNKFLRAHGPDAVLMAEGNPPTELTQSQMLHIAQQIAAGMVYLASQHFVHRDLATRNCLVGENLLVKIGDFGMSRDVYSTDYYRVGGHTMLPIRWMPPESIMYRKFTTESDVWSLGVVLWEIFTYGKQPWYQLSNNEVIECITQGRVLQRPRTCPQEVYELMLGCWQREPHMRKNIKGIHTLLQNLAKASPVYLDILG

Ac-I-K-R-G-CONH2 [Peptide B-5]
expression of the receptor TrkB (TrkB receptor [1]): marked increase
increase in the phosphorylation of the TrkB receptor (TrkB receptor [2]): significant
TrkB levels (TrkB receptor [2]): increased
activation of TrkB (pTrkB Tyr 706 normalized to total TrkB) (TrkB receptor [2]): relatively weak activation

Ac-S-KKR-CONH2 [Peptide B-3]
expression of the receptor TrkB (TrkB receptor [1]): marked increase
increase in the phosphorylation of the TrkB receptor (TrkB receptor [2]): significant
TrkB levels (TrkB receptor [2]): increased
activation of TrkB (pTrkB Tyr 706 normalized to total TrkB) (TrkB receptor [2]): relatively weak activation
